What was measured:
[1] = target: T1, synthetic human eotaxin (predicted mature protein consisting of amino acids 24-97) (human, UniProt P51671 24-97); experiment: Scatchard analysis of competition of unlabeled eotaxin with 125I-eotaxin on purified human eosinophils
T1 construct: also called clone #25 polypeptide; synthetic mature eotaxin
Description: Binding of RANTES, MIP-1α and human eotaxin was carried out in binding buffer consisting of 50 mM HEPES supplemented with 1 mM CaCl_2, 5 mM MgCl_2 and 0.5% BSA. […] The final reaction volume was 200 μls. Total binding was carried out in the absence of unlabeled chemokines, and non-specific binding was determined by incubating cells with radiolabeled chemokine in the presence of 250 nM of cold chemokine. At the end of incubation, cells were washed 3 times in binding buffer plus 0.5 M NaCl. The cell pellets were transferred into LP3 tubes and counted in a gamma counter.
RANTES and MIP-1a were not able to compete with eotaxin under the conditions used. […] The observed dissociation constant is analogous to other chemokine-receptor dissociation constants.

[2] = target: T1, synthetic human eotaxin (predicted …); experiment: radiolabeled eotaxin on 5×10^5 transfected L1-2 cells, with or without 125 nM unlabeled eotaxin
Description: Figure 11: FIG. 11 is a bar graph illustrating the binding of human eotaxin to CKR-3 transfected L1-2 cells. Radiolabeled eotaxin was incubated with 5 ×10^5 transfected cells or untransfected L1-2 cells.

| Kd [1] [nM] | binding result [2] | Binder |
| --- | --- | --- |
| 4.7 |  | receptor for eotaxin on purified human eosinophils (single class of high affinity binding sites) (receptor) MTTSLDTVETFGTTSYYDDVGLLCEKADTRALMAQFVPPLYSLVFTFGLLGNVVVVMILIKYRRLRIMTNIYLLNLAISDLLFLVTLPFWIHYVRGHNWVFGHGMCKLLSGFYHTGLYSEIFFIILLTIDRYLAIVHAVFALRARTVTFGVITSIVTWGLAVLAALPEFIFYETEELFEETLCSALYPEDTVYSWRHFHTLRMTIFCLVLPLLVMAICYTGIIKTLLRCPSKKKYKAIRLIFVIMAVFFIFWTPYNVAILLSSYQSILFGNDCERTKHLDLVMLVTEVIAYSHCCMNPVIYAFVGERFRKYLRHFFHRHLLMHLGRYIPFLPSEKLERTSSVSPSTAEPELSIVF |
|  | binds | FLAG-tagged human C-C chemokine receptor 3 (CKR-3) expressed on transfected mouse L1-2 pre-B lymphoma cells (receptor, also called C-C CKR-3; CC-CKR-3) MDYKDDDDKEFTTSLDTVETFGTTSYYDDVGLLCEKADTRALMAQFVPPLYSLVFTFGLLGNVVVVMILIKYRRLRIMTNIYLLNLAISDLLFLVTLPFWIHYVRGHNWVFGHGMCKLLSGFYHTGLYSEIFFIILLTIDRYLAIVHAVFALRARTVTFGVITSIVTWGLAVLAALPEFIFYETEELFEETLCSALYPEDTVYSWRHFHTLRMTIFCLVLPLLVMAICYTGIIKTLLRCPSKKKYKAIRLIFVIMAVFFIFWTPYNVAILLSSYQSILFGNDCERTKHLDLVMLVTEVIAYSHCCMNPVIYAFVGERFRKYLRHFFHRHLLMHLGRYIPFLPSEKLERTSSVSPSTAEPELSIVF |
